# Reference: publication PMC9352680, “A comprehensive thermodynamic model for RNA binding by the Saccharomyces cerevisiae Pumilio protein PUF4”
# T1: PUF4 RNA-binding domain (Saccharomyces cerevisiae, UniProt P25339 537-888)
# T1 sequence: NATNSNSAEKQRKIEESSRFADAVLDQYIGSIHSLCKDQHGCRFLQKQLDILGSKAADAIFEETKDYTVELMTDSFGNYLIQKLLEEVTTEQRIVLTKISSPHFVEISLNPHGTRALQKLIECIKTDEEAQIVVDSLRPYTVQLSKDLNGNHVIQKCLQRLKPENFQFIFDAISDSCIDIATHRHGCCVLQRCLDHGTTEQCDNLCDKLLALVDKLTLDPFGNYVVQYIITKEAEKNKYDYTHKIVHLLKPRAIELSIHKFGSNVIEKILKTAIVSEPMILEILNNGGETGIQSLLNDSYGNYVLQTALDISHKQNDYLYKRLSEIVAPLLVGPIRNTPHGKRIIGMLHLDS
# Biological target: T1, PUF4 RNA-binding domain
# Assay: Mg; RNA-MaP; 20 mM Na-HEPES pH 7.4, 30 mM KOAc, 0.75 mM MgCl2, 0.1% Tween-20, 5% glycerol, 0.1 mg/mL BSA, 2 mM DTT; 25 C; 0.0125-409.6 nM protein
# Settings: tags: N-His6-TEV cleaved; C-SNAP kept, Cy3B-labelled; label: tethered on chip by stalled RNA polymerase
row,Binder,Kd [nM]
1,UCUCUUAAUGUAUAUUACUUCUCUU (ssRNA) [Id_ii_S1_P4E.2_K4.1_C4.2_[C-2A]_[T-1A]_H4.1_A4.1_F4.1_T4.2_[G10C]],1.68
2,UCUCUUACUGUAUAUUACCUCUCUU (ssRNA) [Id_ii_S1_P4E.2_K4.1_C4.2_[C-2A]_[T-1C]_H4.1_A4.1_F4.1_T4.2_[G10C]_[T11C]],1.69
3,UCUCUUCAUGUAUAUUAAGUCUCUU (ssRNA) [Id_ii_S1_P4E.2_K4.1_C4.2_[T-1A]_H4.1_A4.1_F4.1_T4.2_[G10A]_[T11G]],2.41
4,UCUCUUCGUGUAUAUUAAGUCUCUU (ssRNA) [Id_ii_S1_P4E.2_K4.1_C4.2_[T-1G]_H4.1_A4.1_F4.1_T4.2_[G10A]_[T11G]],3.06
5,UCUCUUAUUGUAUAUUACUUCUCUU (ssRNA) [Id_ii_S1_P4E.2_K4.1_C4.2_[C-2A]_H4.1_A4.1_F4.1_T4.2_[G10C]],1.16
6,UCUCUUCGUGUAUAUUAAUUCUCUU (ssRNA) [Id_ii_S1_P4E.2_K4.1_C4.2_[T-1G]_H4.1_A4.1_F4.1_T4.2_[G10A]],1.2
7,UCUCUUCAUGUAUAUUAUUUCUCUU (ssRNA) [Id_ii_S1_P4E.2_K4.1_C4.2_[T-1A]_H4.1_A4.1_F4.1_T4.2_[G10T]],0.915
8,UCUCUUAAUGUAUAUUAUCUCUCUU (ssRNA) [Id_ii_S1_P4E.2_K4.1_C4.2_[C-2A]_[T-1A]_H4.1_A4.1_F4.1_T4.2_[G10T]_[T11C]],2.38
9,UCUCUUCAUGUAUAUUACUUCUCUU (ssRNA) [Id_ii_S1_P4E.2_K4.1_C4.2_[T-1A]_H4.1_A4.1_F4.1_T4.2_[G10C]],1.07
10,UCUCUUUUUGUAUAUUAUAUCUCUU (ssRNA) [Id_ii_S1_P4E.2_K4.1_C4.2_[C-2T]_H4.1_A4.1_F4.1_T4.2_[G10T]_[T11A]],1.24
11,UCUCUUUUUGUAUAUUAUCUCUCUU (ssRNA) [Id_ii_S1_P4E.2_K4.1_C4.2_[C-2T]_H4.1_A4.1_F4.1_T4.2_[G10T]_[T11C]],0.856
12,UCUCUUUUUGUAUAUUAGUUCUCUU (ssRNA) [Id_ii_S1_P4E.2_K4.1_C4.2_[C-2T]_H4.1_A4.1_F4.1_T4.2],0.256
13,UCUCUUCGUGUAUAUUAGGUCUCUU (ssRNA) [Id_ii_S1_P4E.2_K4.1_C4.2_[T-1G]_H4.1_A4.1_F4.1_T4.2_[T11G]],0.943
14,UCUCUUUUUGUAUAUUAUUUCUCUU (ssRNA) [Id_ii_S1_P4E.2_K4.1_C4.2_[C-2T]_H4.1_A4.1_F4.1_T4.2_[G10T]],0.679
15,UCUCUUAGUGUAUAUUAUUUCUCUU (ssRNA) [Id_ii_S1_P4E.2_K4.1_C4.2_[C-2A]_[T-1G]_H4.1_A4.1_F4.1_T4.2_[G10T]],2.57
16,UCUCUUCCUGUAUAUUAAAUCUCUU (ssRNA) [Id_ii_S1_P4E.2_K4.1_C4.2_[T-1C]_H4.1_A4.1_F4.1_T4.2_[G10A]_[T11A]],1.26
17,UCUCUUAAUGUAUAUUAUUUCUCUU (ssRNA) [Id_ii_S1_P4E.2_K4.1_C4.2_[C-2A]_[T-1A]_H4.1_A4.1_F4.1_T4.2_[G10T]],1.61
18,UCUCUUACUGUAUAUUAUCUCUCUU (ssRNA) [Id_ii_S1_P4E.2_K4.1_C4.2_[C-2A]_[T-1C]_H4.1_A4.1_F4.1_T4.2_[G10T]_[T11C]],1.4
19,UCUCUUAUUGUAUAUUAUCUCUCUU (ssRNA) [Id_ii_S1_P4E.2_K4.1_C4.2_[C-2A]_H4.1_A4.1_F4.1_T4.2_[G10T]_[T11C]],0.846
20,UCUCUUUGCAUCUUAUCUCUU (ssRNA) [Ib_S1_P4E.1_K4.1_C4.1_H4.1_[T3C]_A4.1_[A6C]_F4.1_T4.1],> 2300
21,UCUCUUUUUGUAUAUUAAGUCUCUU (ssRNA) [Id_ii_S1_P4E.2_K4.1_C4.2_[C-2T]_H4.1_A4.1_F4.1_T4.2_[G10A]_[T11G]],3.68

row,Binder,Kd [nM]
1,UCUCUUAUUGUAUAUUAGUUCUCUU (ssRNA) [Id_ii_S1_P4E.2_K4.1_C4.2_[C-2A]_H4.1_A4.1_F4.1_T4.2],0.431
2,UCUCUUACUGUAUAUUAACUCUCUU (ssRNA) [Id_ii_S1_P4E.2_K4.1_C4.2_[C-2A]_[T-1C]_H4.1_A4.1_F4.1_T4.2_[G10A]_[T11C]],1.47
3,UCUCUUUUUGUAUAUUAAAUCUCUU (ssRNA) [Id_ii_S1_P4E.2_K4.1_C4.2_[C-2T]_H4.1_A4.1_F4.1_T4.2_[G10A]_[T11A]],1.21
4,UCUCUUCCUGUAUAUUAAGUCUCUU (ssRNA) [Id_ii_S1_P4E.2_K4.1_C4.2_[T-1C]_H4.1_A4.1_F4.1_T4.2_[G10A]_[T11G]],1.9
5,UCUCUUUUUGUAUAUUAGGUCUCUU (ssRNA) [Id_ii_S1_P4E.2_K4.1_C4.2_[C-2T]_H4.1_A4.1_F4.1_T4.2_[T11G]],0.884
6,UCUCUUAUUGUAUAUUACCUCUCUU (ssRNA) [Id_ii_S1_P4E.2_K4.1_C4.2_[C-2A]_H4.1_A4.1_F4.1_T4.2_[G10C]_[T11C]],0.788
7,UCUCUUACUGUAUAUUAUAUCUCUU (ssRNA) [Id_ii_S1_P4E.2_K4.1_C4.2_[C-2A]_[T-1C]_H4.1_A4.1_F4.1_T4.2_[G10T]_[T11A]],1.83
8,UCUCUUUGCAUACUAUCUCUU (ssRNA) [Ib_S1_P4E.1_K4.1_C4.1_H4.1_[T3C]_A4.1_[T7C]_F4.1_T4.1],117
9,UCUCUUCCUGUAUAUUACUUCUCUU (ssRNA) [Id_ii_S1_P4E.2_K4.1_C4.2_[T-1C]_H4.1_A4.1_F4.1_T4.2_[G10C]],0.91
10,UCUCUUUGCAUGUUAUCUCUU (ssRNA) [Ib_S1_P4E.1_K4.1_C4.1_H4.1_[T3C]_A4.1_[A6G]_F4.1_T4.1],2150
11,UCUCUUACUGUAUAUUAUUUCUCUU (ssRNA) [Id_ii_S1_P4E.2_K4.1_C4.2_[C-2A]_[T-1C]_H4.1_A4.1_F4.1_T4.2_[G10T]],1.39
12,UCUCUUCCUGUAUAUUAGUUCUCUU (ssRNA) [Id_ii_S1_P4E.2_K4.1_C4.2_[T-1C]_H4.1_A4.1_F4.1_T4.2],0.262
13,UCUCUUUUUGUAUAUUAAUUCUCUU (ssRNA) [Id_ii_S1_P4E.2_K4.1_C4.2_[C-2T]_H4.1_A4.1_F4.1_T4.2_[G10A]],1.09
14,UCUCUUACUGUAUAUUAUGUCUCUU (ssRNA) [Id_ii_S1_P4E.2_K4.1_C4.2_[C-2A]_[T-1C]_H4.1_A4.1_F4.1_T4.2_[G10T]_[T11G]],1.34
15,UCUCUUCAUGUAUAUUAACUCUCUU (ssRNA) [Id_ii_S1_P4E.2_K4.1_C4.2_[T-1A]_H4.1_A4.1_F4.1_T4.2_[G10A]_[T11C]],1.15
16,UCUCUUCGUGUAUAUUAUCUCUCUU (ssRNA) [Id_ii_S1_P4E.2_K4.1_C4.2_[T-1G]_H4.1_A4.1_F4.1_T4.2_[G10T]_[T11C]],0.874
17,UCUCUUCCUGUAUAUUAACUCUCUU (ssRNA) [Id_ii_S1_P4E.2_K4.1_C4.2_[T-1C]_H4.1_A4.1_F4.1_T4.2_[G10A]_[T11C]],0.991
18,UCUCUUAUUGUAUAUUAAAUCUCUU (ssRNA) [Id_ii_S1_P4E.2_K4.1_C4.2_[C-2A]_H4.1_A4.1_F4.1_T4.2_[G10A]_[T11A]],0.655
19,UCUCUUUUUGUAUAUUAUGUCUCUU (ssRNA) [Id_ii_S1_P4E.2_K4.1_C4.2_[C-2T]_H4.1_A4.1_F4.1_T4.2_[G10T]_[T11G]],0.981
20,UCUCUUAUUGUAUAUUAAUUCUCUU (ssRNA) [Id_ii_S1_P4E.2_K4.1_C4.2_[C-2A]_H4.1_A4.1_F4.1_T4.2_[G10A]],1.16
21,UCUCUUCGUGUAUAUUAGUUCUCUU (ssRNA) [Id_ii_S1_P4E.2_K4.1_C4.2_[T-1G]_H4.1_A4.1_F4.1_T4.2],0.399

row,Binder,Kd [nM]
1,UCUCUUCCUGUAUAUUAAUUCUCUU (ssRNA) [Id_ii_S1_P4E.2_K4.1_C4.2_[T-1C]_H4.1_A4.1_F4.1_T4.2_[G10A]],0.693
2,UCUCUUCAUGUAUAUUAAAUCUCUU (ssRNA) [Id_ii_S1_P4E.2_K4.1_C4.2_[T-1A]_H4.1_A4.1_F4.1_T4.2_[G10A]_[T11A]],1.57
3,UCUCUUAUUGUAUAUUAUUUCUCUU (ssRNA) [Id_ii_S1_P4E.2_K4.1_C4.2_[C-2A]_H4.1_A4.1_F4.1_T4.2_[G10T]],0.453
4,UCUCUUAAUGUAUAUUACCUCUCUU (ssRNA) [Id_ii_S1_P4E.2_K4.1_C4.2_[C-2A]_[T-1A]_H4.1_A4.1_F4.1_T4.2_[G10C]_[T11C]],2.09
5,UCUCUUCAUGUAUAUUACCUCUCUU (ssRNA) [Id_ii_S1_P4E.2_K4.1_C4.2_[T-1A]_H4.1_A4.1_F4.1_T4.2_[G10C]_[T11C]],0.916
6,UCUCUUCCUGUAUAUUAUUUCUCUU (ssRNA) [Id_ii_S1_P4E.2_K4.1_C4.2_[T-1C]_H4.1_A4.1_F4.1_T4.2_[G10T]],0.724
7,UCUCUUCCUGUAUAUUAUAUCUCUU (ssRNA) [Id_ii_S1_P4E.2_K4.1_C4.2_[T-1C]_H4.1_A4.1_F4.1_T4.2_[G10T]_[T11A]],0.96
8,UCUCUUCCUGUAUAUUAUCUCUCUU (ssRNA) [Id_ii_S1_P4E.2_K4.1_C4.2_[T-1C]_H4.1_A4.1_F4.1_T4.2_[G10T]_[T11C]],0.601
9,UCUCUUAUUGUAUAUUAUGUCUCUU (ssRNA) [Id_ii_S1_P4E.2_K4.1_C4.2_[C-2A]_H4.1_A4.1_F4.1_T4.2_[G10T]_[T11G]],1.27
10,UCUCUUAUUGUAUAUUAUAUCUCUU (ssRNA) [Id_ii_S1_P4E.2_K4.1_C4.2_[C-2A]_H4.1_A4.1_F4.1_T4.2_[G10T]_[T11A]],1.12
11,UCUCUUCCUGUAUAUUAUGUCUCUU (ssRNA) [Id_ii_S1_P4E.2_K4.1_C4.2_[T-1C]_H4.1_A4.1_F4.1_T4.2_[G10T]_[T11G]],1.01
12,UCUCUUCAUGUAUAUUAUCUCUCUU (ssRNA) [Id_ii_S1_P4E.2_K4.1_C4.2_[T-1A]_H4.1_A4.1_F4.1_T4.2_[G10T]_[T11C]],0.967
13,UCUCUUUUUGUAUAUUAGCUCUCUU (ssRNA) [Id_ii_S1_P4E.2_K4.1_C4.2_[C-2T]_H4.1_A4.1_F4.1_T4.2_[T11C]],0.413
14,UCUCUUUUUGUAUAUUAACUCUCUU (ssRNA) [Id_ii_S1_P4E.2_K4.1_C4.2_[C-2T]_H4.1_A4.1_F4.1_T4.2_[G10A]_[T11C]],1.09
15,UCUCUUCGUGUAUAUUAUUUCUCUU (ssRNA) [Id_ii_S1_P4E.2_K4.1_C4.2_[T-1G]_H4.1_A4.1_F4.1_T4.2_[G10T]],1.19
16,UCUCUUAUUGUAUAUUAGCUCUCUU (ssRNA) [Id_ii_S1_P4E.2_K4.1_C4.2_[C-2A]_H4.1_A4.1_F4.1_T4.2_[T11C]],0.714
17,UCUCUUAUUGUAUAUUAACUCUCUU (ssRNA) [Id_ii_S1_P4E.2_K4.1_C4.2_[C-2A]_H4.1_A4.1_F4.1_T4.2_[G10A]_[T11C]],1.01
18,UCUCUUACUGUAUAUUACUUCUCUU (ssRNA) [Id_ii_S1_P4E.2_K4.1_C4.2_[C-2A]_[T-1C]_H4.1_A4.1_F4.1_T4.2_[G10C]],1.6
19,UCUCUUUGCAUUUUAUCUCUU (ssRNA) [Ib_S1_P4E.1_K4.1_C4.1_H4.1_[T3C]_A4.1_[A6T]_F4.1_T4.1],1640
20,UCUCUUUGCAUAGUAUCUCUU (ssRNA) [Ib_S1_P4E.1_K4.1_C4.1_H4.1_[T3C]_A4.1_[T7G]_F4.1_T4.1],647
